# From patent publication US20040176301A1
# Square brackets hold non-standard residues; d marks the D form. Phe(3-F) = N[C@@H](Cc1cccc(F)c1)C(=O)O; Phe(4-F) = N[C@@H](Cc1ccc(F)cc1)C(=O)O; Tic = O=C(O)[C@@H]1Cc2ccccc2CN1; Cha = N[C@@H](CC1CCCCC1)C(=O)O; Phe(ol) = N[C@H](CO)Cc1ccccc1; Phg = N[C@H](C(=O)O)c1ccccc1; Nle = CCCC[C@H](N)C(=O)O; Nva = CCC[C@H](N)C(=O)O; Abu = CC[C@H](N)C(=O)O
# Tests used:
# Cyclin A [1] = target: Cyclin A (UniProt P20248); test: competitive cyclin A binding ELISA; competitor: immobilised biotinyl-Ahx-His-Ala-Lys-Arg-Arg-Leu-Ile-Phe-NH2 (SEQ ID No. 186); conditions: scale: relative to H-His-Ala-Lys-Arg-Arg-Leu-Ile-Phe-NH2
# Cyclin A [2] = target: Cyclin A (UniProt P20248); test: competitive ELISA: cyclin A binding to immobilised biotinyl-Ahx-HAKRRLIF-NH2
# Cyclin D1 = Cyclin D1 (UniProt P24385); test: competitive ELISA: cyclin D1 binding to immobilised biotinyl-Ahx-p21(149-159)
# Chain of Cyclin D1 (P24385 whole entry): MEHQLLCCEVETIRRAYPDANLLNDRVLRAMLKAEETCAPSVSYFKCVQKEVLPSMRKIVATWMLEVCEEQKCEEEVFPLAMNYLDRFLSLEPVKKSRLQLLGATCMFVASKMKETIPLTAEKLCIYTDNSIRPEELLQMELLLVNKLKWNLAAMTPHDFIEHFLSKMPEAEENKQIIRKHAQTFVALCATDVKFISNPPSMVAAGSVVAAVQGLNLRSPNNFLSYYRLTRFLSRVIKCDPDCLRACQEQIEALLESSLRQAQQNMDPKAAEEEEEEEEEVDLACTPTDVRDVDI
# Cyclin A [3] = target: Cyclin A (UniProt P20248); test: cyclin A binding assay, IC50 (immobilised ligand not given)
# Cyclin A [4] = target: Cyclin A (UniProt P20248); test: competitive cyclin A binding ELISA; competitor: immobilised biotinyl-Ahx-HAKRRLIF-NH2; at 100 µM test peptide
Substance,"Relative activity, Cyclin A Binding (Cyclin A [1])",other results
H-HAKRRIIF-NH2,0.2,
H-His-Ala-Lys-Arg-Arg-Leu-Ile-Dhp-OH (peptide),0.2,
H-His-Ala-Lys-Arg-Sar-Leu-Ile-Phe-NH2 (peptide),< 0.1,
H-HAKRRLI[Phe(ol)],1,
H-H[Phg]KRRLIF-NH2,< 0.1,
H-HAKRRLFF-NH2,0.4,
H-HAARRLIF-NH2,0.5,
H-Pya-Ala-Lys-Arg-Arg-Leu-Ile Phe-NH2 (peptide),,"Relative activity, Cyclin A Binding (relative to HAKRRLIF-NH2) (Cyclin A [2]): 0.2"
H-AAKRRLIF-NH2,,"Relative activity, Cyclin A Binding (relative to HAKRRLIF-NH2) (Cyclin A [2]): 2.5"
H-HALRRLIF-NH2,1.4,
H-His-Ser-Lys-Arg-Arg-Leu-Ile-L-Pse-OH (peptide),< 0.1,
H-HAKRRLAF-NH2,0.8,
H-Hse-Ala-Lys-Arg-Arg-Leu-Ile Phe-NH2 (peptide),,"Relative activity, Cyclin A Binding (relative to HAKRRLIF-NH2) (Cyclin A [2]): 2"
P21 N-terminus-LIF hybrid KAURRLIF-NH2 (peptide),,IC50 (Cyclin D1): 20 µM
H-HAKARLIF-NH2,< 0.1,
H-HIKRRLIF-NH2,0.2,
Ac-Arg-Arg-Leu-Asn-Phe-NH2 (peptide),,IC50 (Cyclin A [3]): 8.15 µM
P27 peptide H-Ser-Ala-Abu-Arg-Asn-Leu-Phe-Gly-NH2,,IC50 (Cyclin D1): > 200 µM
H-HAKRRLIL-NH2,< 0.1,

Substance,"Relative activity, Cyclin A Binding (Cyclin A [1])",other results
H-HVKRRLIF-NH2,1.7,
H-His-Ala-Lys-Arg-Aib-Leu-Ile-Phe-NH2 (peptide),< 0.1,
H-Thi-Ala-Lys-Arg-Arg-Leu-Ile Phe-NH2 (peptide),,"Relative activity, Cyclin A Binding (relative to HAKRRLIF-NH2) (Cyclin A [2]): 0.2"
H-HAKRRLLF-NH2,0.6,
H-Asn-Leu-Phe-Gly-NH2 (peptide),,Maximum Inhibition (%) (Cyclin A [4]): 80%
H-HAKRRVIF-NH2,< 0.1,
H-HAKRNLIF-NH2,< 0.1,
H-His-Ala-Lys-Arg-Arg-Leu-1Nap-Phe-NH2 (peptide),0.5,
H-HAKRRLIK-NH2,< 0.1,
H-Dab-Ala-Lys-Arg-Arg-Leu-Ile Phe-NH2 (peptide),,"Relative activity, Cyclin A Binding (relative to HAKRRLIF-NH2) (Cyclin A [2]): 0.4"
H-H[Abu]KRRLIF-NH2,1.3,
H-HAKRALIF-NH2,< 0.1,
H-H[Nva]KRRLIF-NH2,< 0.1,
H-FAKRRLIF-NH2,,"Relative activity, Cyclin A Binding (relative to HAKRRLIF-NH2) (Cyclin A [2]): 1"
H-His-Ala-Lys-Arg-Arg-Leu-Ile-D-Pse-OH (peptide),0.1,
H-HAKKRLIF-NH2,0.1,
H-Arg-Leu-Ile-Phe-NH2 (peptide),,Maximum Inhibition (%) (Cyclin A [4]): 50%
H-HARRRLIF-NH2,1.5,
P21 N-terminus peptide KAURRLFG-NH2,,IC50 (Cyclin D1): 134 µM

# Now from value to substance, other results behind:
"Relative activity, Cyclin A Binding (Cyclin A [1])",Substance,other results
0.2,H-His-Ala-Lys-Arg-Arg-Leu-Ile-L-Pse-OH (peptide),
< 0.1,H-His-Ala-Lys-Hse-Arg-Leu-Ile-Phe-NH2 (peptide),
0.1,H-HAKRRLIW-NH2,
< 0.1,H-His-Ser-Lys-Arg-Arg-Leu-Ile-Pheol (peptide),
0.2,H-HAKRSLIF-NH2,
< 0.1,H-HAKRRLI[Cha]-NH2,
0.7,H-His-Ala-Lys-Arg-Arg-Leu-Ile-2Nap-NH2 (peptide),
0.2,H-HA[Nle]RRLIF-NH2,
0.2,H-His-Ala-Lys-Cit-Arg-Leu-Ile-Phe-NH2 (peptide),
< 0.1,H-His-Ala-Lys-Arg-Arg-Leu-Ile-1Nap-NH2 (peptide),
0.5,H-HAKRRL[Cha]F-NH2,
0.2,H-HAKRRLIY-NH2,
< 0.1,H-His-Ala-Lys-Arg-Arg-1Nap-Ile-Phe-NH2 (peptide),
1.5,H-HAKRRLVF-NH2,
5,H-HAKRRLI[Phe(4-F)]-NH2,
< 0.1,H-HAKRR[Nle]IF-NH2,
< 0.1,H-His-Ala-Lys-Arg-Arg-Leu-Ile-Hof-NH2 (peptide),

"Relative activity, Cyclin A Binding (Cyclin A [1])",Substance,other results
< 0.1,H-His-Ala-Lys-Nle-Arg-Leu-Ile-Phe-NH2 (peptide),
< 0.1,H-HAKRRLF-NH2,
1.2,H-His-Bug-Lys-Arg-Arg-Leu-Ile-Phe-NH2 (peptide),
0.3,H-HAKRRL[Nle]F-NH2,
0.8,H-HAKRRLI[Phe(3-F)]-NH2,
< 0.1,H-HAKQRLIF-NH2,
0.2,H-HFKRRLIF-NH2,
0.2,H-HA[Abu]RRLIF-NH2,
< 0.1,H-HAKRRFIF-NH2,
< 0.1,H-His-Ser-Lys-Arg-Arg-Leu-Ile-D-Pse-OH (peptide),
< 0.1,H-HAKRR[Nva]IF-NH2,
0.1,H-HGKRRLIF-NH2,
< 0.1,H-HAKRPLIF-NH2,
< 0.1,H-HAKRRLI[Tic]-NH2,
< 0.1,H-HAKRR[Cha]IF-NH2,
0.6,H-HAKRRL[Nva]F-NH2,
